Laboratory results: patent US20140194367A1, “AGROCYBE AEGERITA LECTIN AAL-2, AND ENCODING GENE THEREOF, PREPARATION METHOD THEREFOR AND APPLICATION THEREOF” (WUHAN ALPHA-OMEGA BIOLOGY TECHNOLOGY CO., LTD(CN), priority 2011, published 2014)
Entries after “also recorded” stand apart in the source; their conditions may differ.

Legend:
[1] = tested on: mouse hepatoma cell line H22; assay: Tumor growth of H22 tumor bearing mice, in situ tumour injection; assay type: in vivo, BALB/c mice; conditions: 5 mg/kg in situ tumour injection every other day, 7 injections
Method: In this experiment, the BALB/c mice (6-8weeks old, 20 g) are used for the antitumour activity assay. 0.1 ml mouse hepatoma cell line H22 (1×10^7 cells/mL) is subcutaneously inoculated into the oxter area of the BALB/c mice. 7 days after inoculation, inject the Agrocybe aegerita lectin AAL-2 by in situ tumour (protein isolated in example 1) (5 mg/kg, 0.1 ml/mouse). The control group is treated with 0.9% NaCl. Then take the injection every other day, a total of 7 injections, and record the size of the tumor tissue in mice. Tumor size=tumor tissue length L×width W^2/2.

[2] = Glycochip binding, glycan 308
Method: (§1) In order to identify the carbohydrate binding activity of Agrocybe aegerita lectin AAL-2, the Agrocybe aegerita lectin AAL-2 is used to detect 465 kinds of carbohydrate by the glycochip technology.
(§2) Firstly, the purified Agrocybe aegerita lectin AAL-2 (isolated in example 1) is labeled with the biotin and 200 μg/mL AAL-2 incubates the glycochip, then the fluorescein labeled streptavidin combines with the biotin labeled AAL-2. Results are shown in Table 4 (different carbohydrate affinity of AAL-2 arranged from high to low (top of 23 carbohydrates)).

[3] = Glycochip binding, glycan 340
Method: as §1, §2

[4] = Carbohydrate binding specificity by glycochip technology; conditions: biotin labeled AAL-2, 200 μg/mL
Method: as §1, §2

[5] = tested on: Huh7; assay: AAL-2 induced apoptosis of Huh7 cells, Annexin V/PI flow cytometry; assay type: cell-based; conditions: 0.6, 1.2, 2.4 μmol/L; 24 hours and 36 hours; FIG. 6B
Method: (§3) The experiment detects the killing activity of Agrocybe aegerita lectin AAL-2 (isolated protein in example 1) to the two tumor cell lines (H22, Huh7). H22 and Huh7 cell lines (purchased from ATCC) are cultured in RPMI1640 medium and DMEM medium (contains 10% fetal bovine serum, […] and 100 U/mL penicillin). Different concentrations of Agrocybe aegerita lectin AAL-2 prepared in the example 1 are added into tumor cells (final concentration is 0.6 μmol/L, 1.2 μmol/L, 2.4 μmol/L) and cultured for 24 hours and 36 hours, respectively. The treated cells are digested into single cell, stained with the Annexin V/PI dye and detected by the flow cytometry.

[6] = Glycochip binding, glycan 177; conditions: glycan number 177; 200 μg/mL AAL-2
Method: as §1, §2

[7] = Glycochip binding, glycan 182
Method: as §1, §2

[8] = Glycochip binding, glycan 341
Method: as §1, §2

[9] = Glycochip binding, glycan 180
Method: as §1, §2

[10] = Glycochip binding, glycan 175
Method: as §1, §2

[11] = Glycochip binding, glycan 171
Method: as §1, §2

[12] = Glycochip binding, glycan 17; conditions: glycan number 17; 200 μg/mL AAL-2
Method: as §1, §2

[13] = Glycochip binding, glycan 309; conditions: glycan number 309; 200 μg/mL AAL-2
Method: as §1, §2

[14] = Glycochip binding, glycan 176; conditions: glycan number 176; 200 μg/mL AAL-2
Method: as §1, §2

[15] = Glycochip binding, glycan 407
Method: as §1, §2

[16] = Glycochip binding, glycan 336
Method: as §1, §2

[17] = Glycochip binding, glycan 190; conditions: glycan number 190; 200 μg/mL AAL-2
Method: as §1, §2

[18] = Glycochip binding, glycan 178
Method: as §1, §2

[19] = Glycochip binding, glycan 338
Method: as §1, §2

[20] = Glycochip binding, glycan 337
Method: as §1, §2

[21] = Glycochip binding, glycan 172
Method: as §1, §2

[22] = tested on: H22; assay: AAL-2 induced apoptosis of H22 cells, Annexin V/PI flow cytometry; assay type: cell-based, mouse; conditions: 0.6, 1.2, 2.4 μmol/L; 24 hours and 36 hours; FIG. 6A
Method: as §3

[23] = Glycochip binding, glycan 179
Method: as §1, §2

[24] = Glycochip binding, glycan 94
Method: as §1, §2

[25] = Glycochip binding, glycan 181
Method: as §1, §2

[26] = Glycochip binding, glycan 88
Method: as §1, §2

[27] = Glycochip binding, glycan 339
Method: as §1, §2

[28] = rank of affinity, carbohydrate spectrum of AAL-2

B1: AAL-2: new lectin isolated from Agrocybe aegerita total protein by affinity chromatography; amino acid sequence SEQ ID NO: 2; 43 kDa monomer (protein, listed as Agrocybe aegerita)
chain: MTSNVITQDLPIPVASRGFADIVGFGLDGVVIGRNAVNLQPFLAVKNFAQNAGGWLTTKHVRLIADTTGTGKGDIVGFGNAGVYVSVNNGKNTFADPPKMVIANFGYDAGGWRVEKHLRYLADIRKIGRADIIGFGEKGVLVSRNNGGLNFGPATLVLKDFGYDAGGWRLDRHLRFLADVTGNGHLDIVGFGDKHVFISRNNGDGTFAPAKSVIDNFCIDAGGWKIGDHPRFVADLTGDGTADIIGCGKAGCWVALNNGGGVFGQVKLVINDFGTDKGWQAAKHPRFIADLTGNGRGDVVGFGNAGVYVALNNGDGTFQSAKLVLKDFGVQQGWTVSKHRRFVVDLTGDGCADIIGFGEKETLVSYNDGKGNFGPVKALTNDFSFSGGKWAPETTVCWMANLDSSRH
tumor growth (tumor size) ([1]; FIG. 7A): significantly inhibited; also recorded: inhibit the tumor growth | survival time of tumor bearing mice ([1]; FIG. 7B): prolonged obviously; also recorded: prolong the survival time | average ([2]; glycan number 308, 200 μg/mL AAL-2): 11572 | order (glycosyl structure affinity of top 18) [2, 28]: 12 | average ([3]; glycan number 340, 200 μg/mL AAL-2): 8758 | order (glycosyl structure affinity of top 18) [3, 28]: 14 | carbohydrate binding specificity [4]: specifically preferentially bind to carbohydrates with N-Acetylglucosamine as the terminal | apoptosis of Huh7 cells [5]: apoptosis inducing activity depends on the concentration; also recorded: significantly cause two hepatoma cell lines apoptosis | average [6]: 5782 | average ([7]; glycan number 182, 200 μg/mL AAL-2): 8464 | order (glycosyl structure affinity of top 18) [7, 28]: 16 | average ([8]; glycan number 341, 200 μg/mL AAL-2): 11672 | order (glycosyl structure affinity of top 18) [8, 28]: 11 | average ([9]; glycan number 180, 200 μg/mL AAL-2): 17289 | order (glycosyl structure affinity of top 18) [9, 28]: 9 | average ([10]; glycan number 175, 200 μg/mL AAL-2): 21115 | order (glycosyl structure affinity of top 18) [10, 28]: 3 | average ([11]; glycan number 171, 200 μg/mL AAL-2): 24487 | order (glycosyl structure affinity of top 18) [11, 28]: 2 | average [12]: 5331 | average [13]: 6078 | average [14]: 5896 | average ([15]; glycan number 407, 200 μg/mL AAL-2): 6992 | order (glycosyl structure affinity of top 18) [15, 28]: 18 | average ([16]; glycan number 336, 200 μg/mL AAL-2): 30519 | order (glycosyl structure affinity of top 18) [16, 28]: 1 | average [17]: 5571 | average ([18]; glycan number 178, 200 μg/mL AAL-2): 7339 | order (glycosyl structure affinity of top 18) [18, 28]: 17 | average ([19]; glycan number 338, 200 μg/mL AAL-2): 16141 | order (glycosyl structure affinity of top 18) [19, 28]: 10 | average ([20]; glycan number 337, 200 μg/mL AAL-2): 19030 | order (glycosyl structure affinity of top 18) [20, 28]: 7 | average ([21]; glycan number 172, 200 μg/mL AAL-2): 19311 | order (glycosyl structure affinity of top 18) [21, 28]: 6 | apoptosis of H22 cells [22]: apoptosis inducing activity depends on the concentration; also recorded: significantly cause two hepatoma cell lines apoptosis | average ([23]; glycan number 179, 200 μg/mL AAL-2): 19530 | order (glycosyl structure affinity of top 18) [23, 28]: 5 | average ([24]; glycan number 94, 200 μg/mL AAL-2): 11198 | order (glycosyl structure affinity of top 18) [24, 28]: 13 | average ([25]; glycan number 181, 200 μg/mL AAL-2): 18737 | order (glycosyl structure affinity of top 18) [25, 28]: 8 | average ([26]; glycan number 88, 200 μg/mL AAL-2): 8504 | order (glycosyl structure affinity of top 18) [26, 28]: 15 | average ([27]; glycan number 339, 200 μg/mL AAL-2): 20868 | order (glycosyl structure affinity of top 18) [27, 28]: 4
